Experimental data from the supplement of paper PMC11136658.

Test system: peptide library, one residue held at a place counted from the Y acceptor
Test: relative phosphorylation of the sub-library (ratio to the mean residue at this position); higher = residue favoured
Summary of the method: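 Each value expresses phosphorylation relative to the mean randomized residue. Purified recombinant kinases acted for 90 min in 384-well plates on biotinylated Tyr-centred peptide library mixtures, with one residue fixed at one position from −5 to +5, in the presence of 50 μM ATP with γ-32P-ATP. Signals were read by phosphorimaging after capture on streptavidin membranes, then normalized per position to the sum of the 18 randomized residues (16 in the Ser/Thr-free library) and multiplied by that number.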

Sequence of ABL1, construct: aa27-end, human (P00519 27-1130, looked up): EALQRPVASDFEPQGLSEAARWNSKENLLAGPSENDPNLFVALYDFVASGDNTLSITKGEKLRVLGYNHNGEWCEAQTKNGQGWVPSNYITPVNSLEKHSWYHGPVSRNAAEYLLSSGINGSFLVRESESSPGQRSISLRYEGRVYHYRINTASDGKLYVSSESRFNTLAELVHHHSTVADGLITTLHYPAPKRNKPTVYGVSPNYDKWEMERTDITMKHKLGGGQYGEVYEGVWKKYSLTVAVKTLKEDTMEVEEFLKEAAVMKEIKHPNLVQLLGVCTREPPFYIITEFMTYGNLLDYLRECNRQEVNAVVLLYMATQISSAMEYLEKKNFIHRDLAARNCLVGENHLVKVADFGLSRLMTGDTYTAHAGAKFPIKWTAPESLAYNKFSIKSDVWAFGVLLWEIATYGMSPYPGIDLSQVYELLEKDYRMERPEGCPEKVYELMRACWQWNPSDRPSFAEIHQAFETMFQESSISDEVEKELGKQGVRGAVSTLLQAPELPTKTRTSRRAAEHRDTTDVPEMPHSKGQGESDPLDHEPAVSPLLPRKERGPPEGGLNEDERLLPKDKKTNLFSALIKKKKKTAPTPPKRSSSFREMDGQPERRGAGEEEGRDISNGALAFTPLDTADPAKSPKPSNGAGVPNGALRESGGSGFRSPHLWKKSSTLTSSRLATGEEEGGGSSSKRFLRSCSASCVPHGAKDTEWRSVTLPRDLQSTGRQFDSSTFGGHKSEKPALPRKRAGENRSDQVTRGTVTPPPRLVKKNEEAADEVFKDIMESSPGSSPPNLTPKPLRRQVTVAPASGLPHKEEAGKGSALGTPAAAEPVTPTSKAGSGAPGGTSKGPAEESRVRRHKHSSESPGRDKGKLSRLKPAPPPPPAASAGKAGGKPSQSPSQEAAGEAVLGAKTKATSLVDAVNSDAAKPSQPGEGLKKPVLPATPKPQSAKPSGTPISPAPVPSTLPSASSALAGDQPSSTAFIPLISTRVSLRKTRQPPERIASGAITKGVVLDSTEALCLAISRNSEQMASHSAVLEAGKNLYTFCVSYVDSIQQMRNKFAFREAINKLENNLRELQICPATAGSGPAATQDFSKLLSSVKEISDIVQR
Sequence of ABL2, construct: aa38-end, human (P42684 38-1182, looked up): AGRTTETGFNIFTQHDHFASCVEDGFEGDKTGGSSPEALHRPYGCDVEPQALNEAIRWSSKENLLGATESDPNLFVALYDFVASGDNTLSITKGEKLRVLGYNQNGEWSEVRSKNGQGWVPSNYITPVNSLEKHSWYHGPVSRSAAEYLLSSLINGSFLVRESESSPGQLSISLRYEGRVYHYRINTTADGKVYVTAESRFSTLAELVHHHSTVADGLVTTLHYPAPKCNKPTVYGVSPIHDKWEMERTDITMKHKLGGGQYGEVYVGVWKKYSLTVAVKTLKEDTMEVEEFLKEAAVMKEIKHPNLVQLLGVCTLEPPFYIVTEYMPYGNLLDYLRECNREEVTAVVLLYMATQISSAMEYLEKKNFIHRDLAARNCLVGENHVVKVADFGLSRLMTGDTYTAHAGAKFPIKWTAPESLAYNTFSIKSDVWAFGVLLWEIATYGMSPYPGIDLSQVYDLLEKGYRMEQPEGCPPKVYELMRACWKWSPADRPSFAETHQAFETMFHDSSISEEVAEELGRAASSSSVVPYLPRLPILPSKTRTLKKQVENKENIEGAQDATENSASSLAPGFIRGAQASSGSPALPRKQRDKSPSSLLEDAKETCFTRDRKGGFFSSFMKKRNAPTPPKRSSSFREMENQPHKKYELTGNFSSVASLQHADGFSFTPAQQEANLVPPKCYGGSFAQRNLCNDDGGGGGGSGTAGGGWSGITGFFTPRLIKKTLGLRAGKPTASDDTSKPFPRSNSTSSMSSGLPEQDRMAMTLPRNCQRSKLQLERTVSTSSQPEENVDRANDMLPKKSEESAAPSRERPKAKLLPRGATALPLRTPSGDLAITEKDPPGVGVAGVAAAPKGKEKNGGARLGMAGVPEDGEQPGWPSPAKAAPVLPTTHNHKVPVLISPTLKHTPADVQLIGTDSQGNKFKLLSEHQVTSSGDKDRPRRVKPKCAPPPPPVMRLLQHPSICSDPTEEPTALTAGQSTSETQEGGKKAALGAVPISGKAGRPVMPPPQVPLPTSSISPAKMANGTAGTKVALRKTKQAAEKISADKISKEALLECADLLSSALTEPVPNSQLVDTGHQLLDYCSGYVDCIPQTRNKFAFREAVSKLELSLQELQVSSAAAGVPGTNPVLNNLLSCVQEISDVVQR
Sequence of ALK, construct: aa1058-end, human (Q9UM73 1058-1620, looked up): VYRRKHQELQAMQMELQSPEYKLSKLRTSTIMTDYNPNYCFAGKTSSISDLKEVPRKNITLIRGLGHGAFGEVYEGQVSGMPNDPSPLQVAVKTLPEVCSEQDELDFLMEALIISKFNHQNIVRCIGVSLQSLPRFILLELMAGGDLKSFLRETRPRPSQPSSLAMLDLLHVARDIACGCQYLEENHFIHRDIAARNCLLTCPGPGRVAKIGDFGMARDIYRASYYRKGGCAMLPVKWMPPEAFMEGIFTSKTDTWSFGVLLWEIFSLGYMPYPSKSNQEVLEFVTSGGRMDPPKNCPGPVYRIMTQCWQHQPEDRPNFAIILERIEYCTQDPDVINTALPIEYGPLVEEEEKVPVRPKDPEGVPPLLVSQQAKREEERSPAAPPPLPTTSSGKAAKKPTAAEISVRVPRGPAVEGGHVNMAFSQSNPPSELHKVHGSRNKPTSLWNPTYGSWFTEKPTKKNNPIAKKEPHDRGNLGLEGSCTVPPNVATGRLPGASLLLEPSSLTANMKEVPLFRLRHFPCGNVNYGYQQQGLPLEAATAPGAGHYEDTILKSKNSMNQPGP

ABL1, construct: aa27-end, human (from UniProt P00519)
relative phosphorylation
Conditions	at +1	at +2	at +3	at +4	at +5	at -1	at -2	at -3	at -4	at -5
A fixed	3.14	1.24	0.892	0.948	1.12	0.702	1.12	1.02	1.24	1.16
D fixed	0.625	0.513	0.23	0.579	0.651	0.886	0.85	1.21	1.2	1.03
E fixed	0.874	0.93	0.159	0.615	0.611	1.2	1.24	1.91	1.52	0.963
F fixed	0.86	0.975	1.28	1.16	0.705	0.795	0.615	0.796	0.702	0.817
G fixed	1.36	0.628	1.36	1.34	1.27	0.502	1.27	1.16	1.36	1.24
H fixed	1.17	0.749	0.814	1.17	1.1	1.63	0.935	0.919	0.893	1.07
I fixed	0.406	1.05	1.14	0.772	0.681	3.33	0.883	0.491	0.797	0.806
K fixed	0.586	0.815	0.403	1.17	1.17	0.402	0.87	0.79	0.874	1.08
L fixed	0.815	0.961	1.49	0.918	0.987	1.54	1.01	0.885	0.985	0.936
M fixed	1.15	0.954	0.883	1.19	1.09	1.06	0.779	0.928	0.884	0.965
N fixed	0.45	1.01	0.619	0.897	0.922	0.549	0.96	1.18	0.903	1.09
P fixed	0.184	1.02	2.74	0.832	1.38	0.541	1.29	1.14	1.22	1.2
Q fixed	1.13	0.901	0.419	1.09	0.947	0.745	1.08	0.973	1.18	1.07
R fixed	0.969	1.22	0.633	1.36	1.36	0.406	0.825	0.813	0.953	1.19
S fixed	1.16	1.32	1.17	1.01	1.06	0.472	1.12	1.06	0.86	1.01
T fixed	0.843	1.37	1.28	0.939	1.19	0.908	1.19	1.05	0.796	0.97
V fixed	1.03	1.39	1.04	0.925	0.996	1.81	1.4	0.873	1.01	0.873
W fixed	1.26	0.958	1.44	1.08	0.743	0.516	0.567	0.799	0.622	0.509
pThr fixed	0.766	0.921	0.395	0.391	0.458	0.785	0.973	1.51	1.11	0.913
pTyr fixed	1.47	1.77	0.465	0.55	0.607	3.35	1.39	2.36	1.66	1.18

ABL2, construct: aa38-end, human (from UniProt P42684)
relative phosphorylation
Conditions	at +1	at +2	at +3	at +4	at +5	at -1	at -2	at -3	at -4	at -5
A fixed	2.85	1.32	0.871	0.935	1.01	0.717	1.18	1.04	1.16	1.1
D fixed	0.701	0.534	0.245	0.662	0.681	1.01	1.01	1.23	1.32	1.07
E fixed	0.884	1.2	0.199	0.735	0.686	1.45	1.38	1.88	1.69	1.13
F fixed	1.07	0.802	1.21	1.18	0.822	0.756	0.548	0.786	0.675	0.828
G fixed	1.26	0.647	1.23	1.2	1.27	0.49	1.24	1.15	1.33	1.29
H fixed	1.06	0.833	0.868	1.13	1.02	1.62	0.933	1.02	0.859	1.12
I fixed	0.517	0.843	1.46	0.736	0.781	2.9	0.867	0.598	0.774	0.716
K fixed	0.636	0.836	0.439	1.2	1.15	0.425	0.846	0.785	0.926	1.01
L fixed	0.857	0.904	1.47	0.813	0.85	1.55	0.885	0.758	0.87	0.831
M fixed	1.18	0.923	0.861	1.04	1.05	1.05	0.742	0.852	0.907	0.909
N fixed	0.492	1.06	0.756	0.988	1.02	0.674	1.11	1.25	0.871	1.27
P fixed	0.161	1.14	2.59	0.968	1.57	0.556	1.36	1.26	1.34	1.24
Q fixed	1.33	0.97	0.472	1.14	0.969	0.856	1.21	0.957	1.21	1.08
R fixed	1.03	1.27	0.684	1.43	1.4	0.451	0.896	0.883	1.07	1.18
S fixed	1.16	1.24	1.18	0.997	1.13	0.495	1.18	1.12	0.812	0.966
T fixed	0.802	1.42	1.09	0.919	1.11	1.03	1.05	1.11	0.74	0.923
V fixed	0.938	1.33	0.988	0.872	0.79	1.54	1.13	0.771	0.828	0.84
W fixed	1.05	0.737	1.39	1.04	0.69	0.421	0.422	0.552	0.623	0.506
pThr fixed	0.853	1.01	0.2	0.405	0.454	0.971	1.03	1.36	1.07	1.06
pTyr fixed	1.61	1.79	0.391	0.696	0.52	3.96	1.26	1.9	1.49	1.26

ALK, construct: aa1058-end, human (from UniProt Q9UM73)
relative phosphorylation
Conditions	at +1	at +2	at +3	at +4	at +5	at -1	at -2	at -3	at -4	at -5
A fixed	1.39	0.79	0.525	0.758	0.82	0.976	1.09	0.931	1.23	1.06
D fixed	0.468	0.286	0.207	0.721	0.44	1.42	0.92	1.09	1.01	1.01
E fixed	1.42	0.713	0.206	0.871	0.407	0.955	1.02	1.42	1.22	0.887
F fixed	1.04	1.16	1.55	1.34	2.19	1.08	0.732	1.05	1.02	1
G fixed	0.495	0.403	0.445	0.805	0.774	0.349	1.06	1.06	1.27	1.15
H fixed	1.15	0.762	1.14	1.17	0.806	1.02	1.18	0.992	0.88	0.985
I fixed	1.59	1.17	3.08	0.994	1.43	2.22	1.08	0.683	0.817	0.925
K fixed	0.398	0.982	0.401	0.984	0.661	0.353	0.998	1.04	0.956	1.15
L fixed	1.24	1.44	1.22	0.906	1.55	1.64	0.915	0.81	0.954	0.983
M fixed	2.11	1.42	1.78	1.16	1.38	0.903	0.871	0.901	0.918	0.977
N fixed	0.472	0.837	0.496	0.855	0.697	1.31	0.952	1.2	0.882	1.09
P fixed	0.296	0.934	0.476	0.939	1.54	1.06	1.11	1.1	1.29	1.21
Q fixed	1.15	0.852	0.414	1.11	0.601	0.669	1.04	0.908	1.09	0.946
R fixed	0.528	1.46	0.667	1.31	0.879	0.346	1.19	1.19	1.31	1.21
S fixed	0.929	0.776	0.526	0.873	0.706	0.64	1.13	1.05	0.776	0.857
T fixed	0.947	0.682	0.854	0.842	0.974	0.91	1.06	0.983	0.644	0.76
V fixed	1.43	1.06	2.3	0.998	0.968	1.53	0.929	0.733	0.803	0.819
W fixed	0.939	2.26	1.72	1.36	1.18	0.613	0.72	0.865	0.927	0.963
pThr fixed	1.14	0.414	0.169	0.406	0.326	0.79	0.836	0.834	0.909	0.952
pTyr fixed	1.35	1.01	0.343	1.03	0.309	3.63	1.06	1.14	1.17	1.06
